The values that follow come from paper PMC10758103.

What is called stoichiometry N is the number of molecules, sites or subunits per partner or assembly.

For the test, the target named is T1, p32 stably overexpressed from lentiviral pCDH-p32, Q07021.
T1 chain: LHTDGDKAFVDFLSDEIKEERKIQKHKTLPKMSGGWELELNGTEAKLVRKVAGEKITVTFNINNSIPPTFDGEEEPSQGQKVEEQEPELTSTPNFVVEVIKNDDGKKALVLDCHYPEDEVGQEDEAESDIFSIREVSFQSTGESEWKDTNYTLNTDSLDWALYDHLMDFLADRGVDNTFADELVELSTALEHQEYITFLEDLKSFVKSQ
Kind of test: cross-linking; 786-O-pCDH and 786-O-p32 cells treated with gradients of elesclomol and CuSO4; 0.1 mM disuccinimidyl suberate (DSS) on cells, 30 minutes at room temperature, quenched with 50 mM Tris; 8% SDS-PAGE and western blot. The following applies: remark: other sources report otherwise. Background: A western blot detects proteins with antibodies after separation by electrophoresis.

B1: p32 stably overexpressed from lentiviral pCDH-p32, Q07021 74-282 (natural protein)
chain: T1 chain
B1 yielded a stoichiometry N of 2.
